One assay concerns the target EGFP(R96M)-AlfaTag. Nature of the assay: cell-based or functional assay.
The target of a further assay is T1, CP5-46-4D5E.
T1 peptide: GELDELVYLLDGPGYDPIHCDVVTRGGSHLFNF
Description: cell-based or functional assay.

B1: ALFA-Bcl dual input iADAR (other)
chain: MASNFTQFVLVDNGGTGDVTVAPSNFANGIAEWISSNSRSQAYKVTCSVRQSSAQNRKYTIKVEVPKGAWRSYLNMELTIPIFATNSDCELIVKAMQGLLKDGNPIPSAIAANSGIYGGSGSGAGSGSPAGGGAPGSGGGSTGAPPNLWAAQRYGRELRRMSDEFVDSFKKASQLHLPQVLADAVSRLVLGKFGDLTDNFSSPHARRKVLAGVVMTTGTDVKDAKVISVSTGTKCINGEYMSDRGLALNDCHAEIISRRSLLRFLYTQLELYLNNKDDQKRSIFQKSERGGFRLKENVQFHLYISTSPCGDARIFSPHEPILEEPAASGSGPGRLEEELRRRLSPGTGDRHPNRKARGQLRTKIESGQGTIPVRSNASIQTWDGVLQGERLLTMSCSDKIARWNVVGIQGSLLSIFVEPIYFSSIILGSLYHGDHLSRAMYQRISNIEDLPPLYTLNKPLLSGISNAEARQPGKAPNFSVNWTVGDSAIEVINATTGKDELGRASRLCKHALYCRWMRVHGKVPSHLLRSKITKPNVYHESKLAAKEYQAAKARLFTAFIKAGLGAWVEKPTEQDQYSLTGSGGTAEVQLQESGGGLVQPGGSLRLSCTASGVTISALNAMAMGWYRQAPGERRVMVAAVSERGNAMYRESVQGRFTVTRDFTNKMVSLQMDNLKPEDTAVYYCHVLEDRVDSFHDYWGQGTQVTVSSGAGSGASSNRELVVDFLSYKLSQKGYSWSQFSDVEENRTEAPEGTESEMETPSAINGNPSWHLADSPAVNGATGHSSSLDAREVIPMAAVKQALREAGDEFELRYRRAFSDLTSQLHITPGTAYQSFEQVVNELFRDGVNWGRIVAFFSFGGALCVESVDKEMQVLVSRIAAWMATYLNDHLEPWIQENGGWDTFVELYGNNGSSELIKENMHMKLYMEGTVDNHHFKCTSEGEGKPYEGTQTMRIKVVEGGPLPFAFDILATSFLYGSKTFINHTQGIPDFFKQSFPEGFTWERVTTYEDGGVLTATQDTSLQDGCLIYNVKIRGVNFTSNGPVMQKKTLGWEAFTETLYPADGGLEGRNDMALKLVGGSHLIANIKTTYRSKKPAKNLKMPGVYYVDYRLERIKEANNETYVEQHEVAVARYCDLPSKLGHKLN
For B1, the “median relative fluorescence of the 4xUAG-MS2 reporter, A-1331852 plus EGFP(R96M)-AlfaTag against A-1331852 alone, HEK293FT, flow cytometry” value with EGFP(R96M)-AlfaTag was approximately 110 fold.

B2: NS4A/NS3 (Genotype 1B) (enzyme)
chain: GSVVIVGRIILSGSGSITAYSQQTRGLLGCIITSLTGRDKNQVEGEVQVVSTATQSFLATCVNGVCWTVYHGAGSKTLAGPKGPITQMYTNVDQDLVGWQAPPGARSLTPCTCGSSDLYLVTRHADVIPVRRRGDSRGSLLSPRPVSYLKGSSGGPLLCPSGHAVGIFRAAVCTRGVAKAVDFVPVESMETTMRS
B2: in the assay with CP5-46-4D5E, the “fold change of the grazoprevir treated iADAR compared to DMSO treated, unmutated Pep-NS3 system, 4xUAG MS2 reporter, HEK293FT, flow cytometry (intramolecular pair)” value is approximately 31 fold and the “ratio of mNeonGreen to mCherry (mNG/mCh), 2 µM grazoprevir against no drug, HEK cells, microscopy (intramolecular pair)” value is approximately 18 fold.

The values above are taken from patent US20240263193A1 (published 2024).
